Numbering of substitutions follows the chain as printed.
B1: MAdCAM antibody Table 1 clone 42 (scFv)
scFv: QVQLVQSGAEVKKPGSSVKVSCKASGGTLSRYGVSWVRQAPGQGLEWMGGIIPIFGTTNYAQKFQGRVTITADESTSTAYMELSSLRSEDTAVYYCARDRVYYDSSGYPTWYFDLWGRGTLVTVSSGGGGSGGGGSGGGGSGGGGSEIVMTQSPATLSVSPGERATLSCRASQSVSSSYLAWYQQKPGQAPRLLIYGASTRATGIPARFSGSGSGTEFTLTISSLQSEDFAVYYCQQYGSSPITFGQGTKVEIK
B2: MAdCAM antibody Table 1 clone 51 (scFv)
scFv: EVQLLESGGGLVQPGGSLRLSCAASGFTFNNYGMNWVRQAPGKGLEWVSRINSDGSSTSYADSVKGRFTISRDNSKNTLYLQMNSLRAEDTAVYYCARGAYYYYYMDVWGQGTLVTVSSGGGGSGGGGSGGGGSGGGGSEIVMTQSPATLSVSPGERATLSCRASQSVSGSYLAWYQQKPGQAPRLLIYATSSRASGIPARFSGSGSGTEFTLTISSLQSEDFAVYYCQQYYSGLTFGQGTKVEIK
B3: MAdCAM antibody Table 1 clone 45 (scFv)
scFv: EVQLLESGGGLVQPGGSLRLSCAASGFSVSSNYMSWVRQAPGKGLEWVAGISYDGSSKPYADSVKGRFTISRDNSKNTLYLQMNSLRAEDTAVYYCARSRGIAARPLQHWGQGTLVTVSSGGGGSGGGGSGGGGSGGGGSDIVMTQSPDSLAVSLGERATINCKSSQSVLYSSNNKNYLAWYQQKPGQPPKLLIYWASTRQSGVPDRFSGSGSGTDFTLTISSLQAEDVAVYYCHQYYGHPPTFGGGTKVEIK
B4: MAdCAM antibody Table 1 clone 46 (scFv)
scFv: B3 scFv with W196Q
B5: MAdCAM antibody Table 1 clone 35 (scFv)
scFv: EVQLLESGGGLVQPGGSLRLSCAASGFSFSSYTMNWVRQAPGKGLEWVSFITSSSRTIYYADSVKGRFTISRDNSKNTLYLQMNSLRAEDTAVYYCARDRRGDYGDSWYFDLWGRGTLVTVSSGGGGSGGGGSGGGGSGGGGSEIVMTQSPATLSVSPGERATLSCRASQSVRNYLAWYQQKPGQAPRLLIYGASTRATGIPARFSGSGSGTEFTLTISSLQSEDFAVYYCQQYGSSPLTFGGGTKVEIK
B6: MAdCAM antibody Table 1 clone 40 (scFv)
scFv: QVQLVQSGAEVKKPGASVKVSCKASGYTFTSYGISWVRQAPGQGLEWMGIINPRGGSTIFAQKFQGRVTMTRDTSTSTVYMELSSLRSEDTAVYYCARGTRSSGWYGWFDPWGQGTLVTVSSGGGGSGGGGSGGGGSGGGGSDIQMTQSPSSLSASVGDRVTITCRASQGIGNWLAWYQQKPGKAPKLLIYAASNLETGVPSRFSGSGSGTDFTLTISSLQPEDFATYYCQQIHSYPLTFGGGTKVEIK
B7: MAdCAM antibody Table 1 clone 39 (scFv)
scFv: QVQLVQSGAEVKKPGASVKVSCKASGYTFTSYYMHWVRQAPGQGLEWMGWMNPNSGNTGYAQKFQGRVTMTRDTSTSTVYMELSSLRSEDTAVYYCARDLGYYDSSGYFGAFDIWGQGTTVTVSSGGGGSGGGGSGGGGSGGGGSDIQMTQSPSSLSASVGDRVTITCQSSEDISSSLNWYQQKPGKAPKLLIYAASSLQIGVPSRFSGSGSGTDFTLTISSLQPEDFATYYCQQTYSTPYTFGQGTKVEIK
B8: MAdCAM antibody Table 1 clone 44 (scFv)
scFv: EVQLVESGGGLVKPGGSLRLSCAASGFTFSSYWMSWVRQAPGKGLEWVSAIGTGGGTYYAAPVKGRFTISRDDSKNTLYLQMNSLKTEDTAVYYCAREWLVPYYGMDVWGQGTTVTVSSGGGGSGGGGSGGGGSGGGGSDIQMTQSPSSLSASVGDRVTITCRASQSISRWLAWYQQKPGKAPKLLIYGASNLQSGVPSRFSGSGSGTDFTLTISSLQPEDFATYYCQQSYSTPWTFGQGTKVEIK
B9: MAdCAM antibody Table 1 clone 49 (scFv)
scFv: QVQLVQSGAEVKKPGASVKVSCKASGDTFTGYYIHWVRQAPGQGLEWMGWINPNSGGTNYAQKFQGRVTMTRDTSTSTVYMELSSLRSEDTAVYYCARSGLWLGSYYGMDVWGQGTLVTVSSGGGGSGGGGSGGGGSGGGGSDIQMTQSPSSLSASVGDRVTITCRASQTISIWLAWYQQKPGKAPKLLIYDASTLQSGVPSRFSGSGSGTDFTLTISSLQPEDFATYYCQQYSSYPLTFGQGTKVEIK
B10: MAdCAM antibody Table 1 clone 43 (scFv)
scFv: EVQLLESGGGLVQPGGSLRLSCAASGFTFDDFAMHWVRQAPGKGLEWVSGISGNGDSRYYADSVKGRFTISRDNSKNTLYLQMNSLRAEDTAVYYCARDASYGGNYGMDVWGQGTTVTVSSGGGGSGGGGSGGGGSGGGGSDIQMTQSPSSLSASVGDRVTITCQASQDIRNYLNWYQQKPGKAPKLLIYKASTLESGVPSRFSGSGSGTDFTLTISSLQPEDFATYYCQQANSFPLTFGPGTKVDIK
B11: MAdCAM antibody Table 1 clone 56 (scFv)
scFv: EVQLLESGGGLVQPGGSLRLSCAASGFTFDDYAMHWVRQAPGKGLEWVSAISGGGEDTYYADSVKGRFTISRDNSKNTLYLQMNSLRAEDTAVYYCARDASYGGNYGMDVWGQGTTVTVSSGGGGSGGGGSGGGGSGGGGSDIQMTQSPSSLSASVGDRVTITCQASQDIRNYLNWYQQKPGKAPKLLIYKASSLESGVPSRFSGSGSGTDFTLTISSLQPEDFATYYCQQANSYPVTFGGGTKVEIK
B12: MAdCAM antibody Table 1 clone 33 (scFv)
scFv: QVQLVQSGAEVKKPGASVKVSCKASGYTFTSYGISWVRQAPGQGLEWMGWMHPKSGDTGLTQKFQGRVTMTRDTSTSTVYMELSSLRSEDTAVYYCARDTPYYYYGMDVWGQGTTVTVSSGGGGSGGGGSGGGGSGGGGSDIQMTQSPSSLSASVGDRVTITCRASQSISSWLAWYQQKPGKAPKLLIYAASSLQSGVPSRFSGSGSGTDFTLTISSLQPEDFATYYCQQSYSVPITFGQGTKVEIK
B13: MAdCAM antibody Table 1 clone 38 (scFv)
scFv: EVQLLESGGGLVQPGGSLRLSCAASGFTFGSYSMSWVRQAPGKGLEWVSAIGTGGGTYYADSVKGRFTISRDNSKNTLYLQMNSLRAEDTAVYYCAKGTPYYYYYGMDVWGQGTMVTVSSGGGGSGGGGSGGGGSGGGGSDIQMTQSPSSLSASVGDRVTITCRASQPLSNWLAWYQQKPGKAPKLLIYAASSLQSGVPSRFSGSGSGTDFTLTISSLQPEDFATYYCQQAISFPLTFGGGTKVEIK
B14: MAdCAM antibody Table 1 clone 47 (scFv)
scFv: EVQLLESGGGLVQPGGSLRLSCAASGFSFSDYGMHWVRQAPGKGLEWVSAISGSGGSTYYADSVKGRFTISRDNSKNTLYLQMNSLRAEDTAVYYCARDGGWQPAAILDYWGQGTLVTVSSGGGGSGGGGSGGGGSGGGGSDIQMTQSPSSLSASVGDRVTITCRASQGISNNLNWYQQKPGKAPKLLIYDASNLETGVPSRFSGSGSGTDFTLTISSLQPEDFATYYCQQSYSTPLTFGGGTKVEIK
B15: MAdCAM antibody Table 1 clone 48 (scFv)
scFv: EVQLLESGGGLVQPGGSLRLSCAASGFTFSDHGMHWVRQAPGKGLEWVSVIYGGESTYYADSVKGRFTISRDNSKNTLYLQMNSLRAEDTAVYYCARDPAVAGGGIFDYWGQGTLVTVSSGGGGSGGGGSGGGGSGGGGSDIQMTQSPSSLSASVGDRVTITCRASQGISNYLAWYQQKPGKAPKLLIYDASNLETGVPSRFSGSGSGTDFTLTISSLQPEDFATYYCQQSYSTCYTFGQGTKLEIK
B16: MAdCAM antibody Table 1 clone 50 (scFv)
scFv: QVQLVQSGAEVKKPGASVKVSCKASGYTFTSYDINWVRQAPGQGLEWMGWINPNSGTTGYAQKFQGRVTMTRDTSTSTVYMELSSLRSEDTAVYYCARSPYYYYGMDVWGQGTTVTVSSGGGGSGGGGSGGGGSGGGGSDIQMTQSPSSLSASVGDRVTITCRASHFISRWVAWYQQKPGKAPKLLIYAASTLQSGVPSRFSGSGSGTDFTLTISSLQPEDFATYYCQQSYSGISFGPGTKVDIK
B17: MAdCAM antibody Table 1 clone 37 (scFv)
scFv: QVQLVQSGAEVKKPGASVKVSCKASGYTFSKHFVHWVRQAPGQGLEWMGWMNPNSGNSGYAQKFQGRVTMTRDTSTSTVYMELSSLRSEDTAVYYCARGEGGYYYYGMDVWGQGTLVTVSSGGGGSGGGGSGGGGSGGGGSDIQMTQSPSSLSASVGDRVTITCRASQSISSWLAWYQQKPGKAPKLLIYAASTLQSGVPSRFSGSGSGTDFTLTISSLQPEDFATYYCQQSYSTPWTFGQGTKVEIK

Each binder was assayed against T1, human MAdCAM expressed on cells (human, UniProt Q13477 19-382) (assay: cell binding).
T1 construct: whole, on cells
T1 sequence (looked up): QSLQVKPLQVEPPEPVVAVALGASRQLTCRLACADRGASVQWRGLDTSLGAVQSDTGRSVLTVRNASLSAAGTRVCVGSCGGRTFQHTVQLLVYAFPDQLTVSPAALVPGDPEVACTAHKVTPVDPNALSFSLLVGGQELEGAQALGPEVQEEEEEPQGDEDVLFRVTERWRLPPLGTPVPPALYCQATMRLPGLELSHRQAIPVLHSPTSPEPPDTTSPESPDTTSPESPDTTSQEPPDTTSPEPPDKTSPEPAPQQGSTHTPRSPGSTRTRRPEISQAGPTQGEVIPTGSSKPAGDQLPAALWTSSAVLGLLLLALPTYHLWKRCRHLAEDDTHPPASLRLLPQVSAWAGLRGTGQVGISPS

Binder	binding result
B1	binds
B2	binds
B3	binds
B4	binds
B5	binds
B6	binds
B7	binds
B8	binds
B9	binds
B10	binds
B11	binds
B12	binds
B13	binds
B14	binds
B15	binds
B16	binds
B17	binds

These binders were tested against T2, mouse MAdCAM expressed on cells (mouse, UniProt Q61826 22-405) (assay: cell binding).
T2 construct: whole, on cells
T2 sequence (looked up): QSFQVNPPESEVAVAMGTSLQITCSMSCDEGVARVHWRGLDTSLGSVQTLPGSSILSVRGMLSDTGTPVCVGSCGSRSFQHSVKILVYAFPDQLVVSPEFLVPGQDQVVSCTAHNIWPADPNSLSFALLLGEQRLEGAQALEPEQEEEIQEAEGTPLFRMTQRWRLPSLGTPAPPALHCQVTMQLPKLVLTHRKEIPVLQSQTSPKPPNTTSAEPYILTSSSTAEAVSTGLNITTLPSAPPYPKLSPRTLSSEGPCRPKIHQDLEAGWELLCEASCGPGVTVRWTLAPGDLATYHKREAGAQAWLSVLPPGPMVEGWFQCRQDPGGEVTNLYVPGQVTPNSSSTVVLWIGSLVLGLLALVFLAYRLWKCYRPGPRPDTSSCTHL

Binder	binding result
B1	no binding
B2	no binding
B3	no binding
B4	no binding
B5	no binding
B6	no binding
B7	no binding
B8	no binding
B9	no binding
B10	no binding
B11	no binding
B12	no binding
B13	no binding
B14	no binding
B15	no binding
B16	no binding
B17	no binding

From patent US20230235004A1 (published 2023)
